Measurements taken from patent publication US20190338002A1 (Pieris, published 2019).
Numbering of substitutions follows the chain as printed.

B1: lipocalin mutein SEQ ID NO: 7 (designed binder)
chain: QDSTSDLIPAPPLSKVPLQQNFQDNQFHGKWYVVGWAGNTLLREDKDPIKMQATIYELKEDKSYNVTWVYFSEKRCNYHIETSVPGSQPGEFTLGTIKSYPGETSILVRVVSTNYNQHAMVFFKGVSQNREIFEITLYGRTKELTSELKENFIRFSKSLGLPENHIVFPVPIDQCIDGSAWSHPQFEK
notes: biotinylated by NHS chemistry for capture in SPR
B2: lipocalin mutein SEQ ID NO: 28 (designed binder)
chain: B1 chain with T54I, K62R, R75K, S83F, S105P, V111M, S127N, T136I, S146N
notes: as for B1
B3: lipocalin mutein SEQ ID NO: 8 (designed binder)
chain: B1 chain with L42R, D47N, I49T, R75K
notes: as for B1
B4: lipocalin mutein SEQ ID NO: 10 (designed binder)
chain: B1 chain with D47N, I49T, V66A, F71L, R75K, I97T, S105P
notes: as for B1
B5: lipocalin mutein SEQ ID NO: 9 (designed binder)
chain: B1 chain with N65D, F71L, R75K, V126M, T145A
notes: as for B1
B6: lipocalin mutein SEQ ID NO: 12 (designed binder)
chain: B1 chain with I49P, K62R, R75K, K98Q, Y100H, S105P, V126M, S127G
notes: as for B1
B7: lipocalin mutein SEQ ID NO: 13 (designed binder)
chain: QDSTSDLIPAPPLSKVPLQQNFQDNQFHGKWYVVGRAGNEELREDKDPQKMEATIYELKEDKSYNVTDVGFSEKKCIYVIHTFVPGSQPGEFTLGNIKSYPGVTSALVRVVSTNYNQHAMVFFKVVKQNRELFEITLYGRTKELTSELKENFIRFSKSLGLPENHIVFPVPIDQCIDGSAWSHPQFEK
notes: as for B1
B8: lipocalin mutein SEQ ID NO: 22 (designed binder)
chain: B7 chain with E40D, E41A, Q49E, F71L, S72V, E73Q, I77M, S87G, F123V, V125L
notes: as for B1
B9: lipocalin mutein SEQ ID NO: 16 (designed binder)
chain: B7 chain with E40D, Q49E, S72V, E73Q, I77M, A106G, K127R
notes: as for B1
B10: lipocalin mutein SEQ ID NO: 21 (designed binder)
chain: B7 chain with E40D, E41A, Q49E, S72V, E73Q, I77M, V108I, S112N, F123V, V125L
notes: as for B1
B11: cysteine-free lipocalin mutein SEQ ID NO: 31 (designed binder)
chain: QDSTSDLIPAPPLSKVPLQQNFQDNQFQGKWYVVGWAGNTLLREDKDPIKMQAMIYELKEDKSYNVTWVYFADKKRNYHIETFVPGSQPGEFTLGTIKSYPGETPILVRVVSTNYNQHAMVFFKGVNQNREIFEIVLYGRTKELTNELKENFIRFSKSLGLPENHIVFPVPIDQFIDGSAWSHPQFEK
notes: as for B1
B12: cysteine-free lipocalin mutein SEQ ID NO: 38 (designed binder)
chain: B11 chain with F175V
notes: as for B1
B13: cysteine-free lipocalin mutein SEQ ID NO: 35 (designed binder)
chain: B11 chain with R76V, F175Y
notes: as for B1
B14: cysteine-free lipocalin mutein SEQ ID NO: 34 (designed binder)
chain: B11 chain with R76I, F175E
notes: as for B1
B15: cysteine-free lipocalin mutein SEQ ID NO: 33 (designed binder)
chain: B11 chain with R76L, F175W
notes: as for B1
B16: cysteine-free lipocalin mutein SEQ ID NO: 37 (designed binder)
chain: B11 chain with R76N, F175L
notes: as for B1
B17: cysteine-free lipocalin mutein SEQ ID NO: 32 (designed binder)
chain: B11 chain with R76M, F175Y
notes: as for B1
B18: cysteine-free lipocalin mutein SEQ ID NO: 40 (designed binder)
chain: B11 chain with R76F, F175D
notes: as for B1
B19: cysteine-free lipocalin mutein SEQ ID NO: 39 (designed binder)
chain: B11 chain with R76K, F175D
notes: as for B1
B20: cysteine-free lipocalin mutein SEQ ID NO: 36 (designed binder)
chain: B11 chain with F175W
notes: as for B1

Target: T1, rat beta CGRP (SEQ ID NO: 83) (rat, not fully specified)
T1 construct: also called rat βCGRP; rat β-CGRP
T1 peptide: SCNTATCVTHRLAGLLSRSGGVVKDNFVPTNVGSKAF
Assay: SPR, 37 C, mutein captured, CGRP analyte
Method: (§1) The Biotin CAPture Kit (GE Healthcare) was used to immobilize biotinylated lipocalin muteins to a chip surface. Muteins were biotinylated using standard NHS chemistry. Undiluted Biotin CAPture Reagent (streptavidin conjugated with ss-DNA oligo) was captured on a Sensor Chip CAP with the pre-immobilized complementary ss-DNA oligo. Thereafter, biotinylated muteins at 1 μg/mL were applied for 300 s at a flow rate of 5 μL/min.
(§2) CGRP species were applied in three concentrations of 30 nM, 3 nM and 0.3 nM at a flow rate of 30 μL/min or in a single concentration of 25 nM per cycle as shown in FIG. 2. The dilutions were injected with association times of 180 s and dissociation times of 5400 sec to obtain ka and kd information. Regeneration of the chip surface was achieved by injecting 6 M Guanidinium-HCl+0.25 M NaOH (120 s) with a flow rate of 10 μL/min. Injection of regeneration solutions was followed by an extra wash step with HBS-EP+(1×; BR-1006-69; GE Healthcare) running buffer and a stabilization period of 120 s.
(§3) The data were double-referenced by subtraction of the corresponding signals measured for the control channel (loaded with Biotin CAPture reagent only) and by subtraction of buffer injections from the binding responses. Association rate constant ka and dissociation rate constant kd for the binding reaction were determined using Biacore T200 Evaluation Software V2.0 for data processing and kinetic fitting. The data were globally fit with 1:1 binding model.

Binder | Kd | koff | kon
B1 | 0.091 nM | 0.000276 s⁻¹ | 3.04e+06 M⁻¹ s⁻¹
B2 | 0.032 nM | 5.48e-05 s⁻¹ | 1.72e+06 M⁻¹ s⁻¹
B3 | 0.349 nM | 0.000636 s⁻¹ | 1.82e+06 M⁻¹ s⁻¹
B4 | 0.206 nM | 0.000224 s⁻¹ | 1.08e+06 M⁻¹ s⁻¹
B5 | 0.075 nM | 0.000275 s⁻¹ | 3.68e+06 M⁻¹ s⁻¹
B6 | 0.176 nM | 0.000205 s⁻¹ | 1.17e+06 M⁻¹ s⁻¹
B7 | 0.111 nM | 0.00035 s⁻¹ | 3.16e+06 M⁻¹ s⁻¹
B8 | 0.013 nM | 2.02e-05 s⁻¹ | 1.6e+06 M⁻¹ s⁻¹
B9 | 0.097 nM | 0.000229 s⁻¹ | 2.37e+06 M⁻¹ s⁻¹
B10 | 0.018 nM | 2.36e-05 s⁻¹ | 1.34e+06 M⁻¹ s⁻¹

Target: T2, rat alpha CGRP (SEQ ID NO: 82) (rat)
T2 construct: also called rat αCGRP; rat α-CGRP
T2 peptide: T1 peptide with K35E
Assay: SPR, 37 C, mutein captured, CGRP analyte
Method: as §1, §2, §3

Binder | Kd | koff | kon
B1 | 0.3 nM | 0.000313 s⁻¹ | 1.04e+06 M⁻¹ s⁻¹
B2 | 0.049 nM | 6.88e-05 s⁻¹ | 1.41e+06 M⁻¹ s⁻¹
B3 | 1.14 nM | 0.000837 s⁻¹ | 734000 M⁻¹ s⁻¹
B4 | 0.55 nM | 0.000307 s⁻¹ | 559000 M⁻¹ s⁻¹
B5 | 0.26 nM | 0.000318 s⁻¹ | 1.22e+06 M⁻¹ s⁻¹
B6 | 0.45 nM | 0.000299 s⁻¹ | 661000 M⁻¹ s⁻¹
B7 | 0.28 nM | 0.000525 s⁻¹ | 1.85e+06 M⁻¹ s⁻¹
B8 | 0.033 nM | 3.05e-05 s⁻¹ | 931000 M⁻¹ s⁻¹
B9 | 0.28 nM | 0.000398 s⁻¹ | 1.41e+06 M⁻¹ s⁻¹
B10 | 0.053 nM | 3.7e-05 s⁻¹ | 703000 M⁻¹ s⁻¹

Target: T3, human alpha CGRP (SEQ ID NO: 80) (human, not fully specified)
T3 construct: also called human αCGRP; hαCGRP
T3 peptide: T1 peptide with S1A, N3D, D25N
Assay: SPR, 37 C, mutein captured, CGRP analyte
Method: as §1, §2, §3

Binder | Kd | koff | kon
B1 | 0.067 nM | 0.000249 s⁻¹ | 3.74e+06 M⁻¹ s⁻¹
B2 | 0.031 nM | 4.99e-05 s⁻¹ | 1.59e+06 M⁻¹ s⁻¹
B3 | 0.288 nM | 0.000595 s⁻¹ | 2.07e+06 M⁻¹ s⁻¹
B4 | 0.163 nM | 0.000205 s⁻¹ | 1.26e+06 M⁻¹ s⁻¹
B5 | 0.044 nM | 0.000257 s⁻¹ | 5.88e+06 M⁻¹ s⁻¹
B6 | 0.15 nM | 0.000162 s⁻¹ | 1.08e+06 M⁻¹ s⁻¹
B7 | 0.075 nM | 0.000436 s⁻¹ | 5.82e+06 M⁻¹ s⁻¹
B8 | 0.009 nM | 1.56e-05 s⁻¹ | 1.76e+06 M⁻¹ s⁻¹
B9 | 0.052 nM | 0.000259 s⁻¹ | 5.02e+06 M⁻¹ s⁻¹
B10 | 0.014 nM | 1.71e-05 s⁻¹ | 1.21e+06 M⁻¹ s⁻¹

Target: T4, human beta CGRP (SEQ ID NO: 81) (human, not fully specified)
T4 construct: also called human βCGRP; hβCGRP
T4 peptide: T1 peptide with S1A, V22M, D25S
Assay: SPR, 37 C, mutein captured, CGRP analyte
Method: as §1, §2, §3

Binder | Kd | koff | kon
B1 | 0.036 nM | 0.000188 s⁻¹ | 5.21e+06 M⁻¹ s⁻¹
B2 | 0.014 nM | 3.41e-05 s⁻¹ | 2.52e+06 M⁻¹ s⁻¹
B3 | 0.143 nM | 0.000529 s⁻¹ | 3.7e+06 M⁻¹ s⁻¹
B4 | 0.076 nM | 0.000162 s⁻¹ | 2.14e+06 M⁻¹ s⁻¹
B5 | 0.027 nM | 0.000181 s⁻¹ | 6.8e+06 M⁻¹ s⁻¹
B6 | 0.095 nM | 0.000104 s⁻¹ | 1.1e+06 M⁻¹ s⁻¹
B7 | 0.031 nM | 0.000366 s⁻¹ | 1.18e+07 M⁻¹ s⁻¹
B8 | 0.003 nM | 9.32e-06 s⁻¹ | 2.7e+06 M⁻¹ s⁻¹
B9 | 0.036 nM | 0.000364 s⁻¹ | 1.01e+07 M⁻¹ s⁻¹
B10 | 0.004 nM | 8.74e-06 s⁻¹ | 2.36e+06 M⁻¹ s⁻¹

Target: T3, human alpha CGRP (SEQ ID NO: 80)
Assay: cell-based or functional assay

Binder | cAMP assay IC50, SK-N-MC cells
B11 | 0.19 nM
B12 | 0.21 nM
B13 | 0.15 nM
B14 | 0.12 nM
B15 | 0.14 nM
B16 | 0.16 nM
B17 | 0.17 nM
B18 | 0.18 nM
B19 | 0.21 nM
B20 | 0.25 nM

Target: T4, human beta CGRP (SEQ ID NO: 81)
Assay: cell-based or functional assay

Binder | cAMP assay IC50, SK-N-MC cells
B11 | 1.64 nM
B12 | 3.16 nM
B13 | 0.27 nM
B14 | 0.29 nM
B15 | 0.24 nM
B16 | 0.77 nM
B17 | 0.26 nM
B18 | 0.42 nM
B19 | 1.03 nM
B20 | 0.81 nM

Target: T3, human alpha CGRP (SEQ ID NO: 80)
Assay: SPR as in Example 5
Method: as §1, §2

Binder | Kd
B11 | 0.033 nM
B12 | 0.059 nM
B13 | 0.045 nM
B14 | 0.041 nM
B15 | 0.034 nM
B16 | 0.055 nM
B17 | 0.034 nM
B18 | 0.07 nM
B19 | 0.062 nM
B20 | 0.046 nM

Target: T4, human beta CGRP (SEQ ID NO: 81)
Assay: SPR as in Example 5
Method: as §1, §2

Binder | Kd
B11 | 0.043 nM
B12 | 0.026 nM
B13 | 0.017 nM
B14 | 0.025 nM
B15 | 0.018 nM
B16 | 0.023 nM
B17 | 0.021 nM
B18 | 0.023 nM
B19 | 0.034 nM
B20 | 0.022 nM
